Reference: patent US20240336680A1
Residue numbers refer to the chain shown, from its start.

How the values were obtained:
[1] = biological target: human CLDN18.2 (isoform 2 of claudin-18), full length, expressed on CHO cells (human) (UniProt P56856); test: FACS titration on CHO/CLDN18.2 cells, 0.00001 to 100 ug/mL
[2] = biological target: human CLDN18.2 (isoform 2 of claudin-18), full length, expressed on CHO cells (human) (UniProt P56856); test: FACS, serial dilutions on CHO cells expressing human CLDN18.2

B1: HuT252S4 H3/L1 (antibody, V domains shown)
VH: EVQLVQSGAEVKKPGESLKISCKGSGYSFTGYNMNWVRQMPGKNLEWIGLINPYNGGTRYNQKFKGKATLSVDKSISTAYLQWSSLKASDTAMYFCARMGLGNAMDYWGQGTTVTVSS
VL: DIVMTQSPDSLAVSLGERATINCKSSQNLLNSGNQKNYLTWYQQKPGQPPKLLIYWASTMESGVPDRFSGSGSGTDFTLTISSLQAEDVAVYYCQNDYIYPLPFGQGTKLEIK
An EC50 (read off the curve) [1] of 1 µg/mL was found for B1 in this work.

B2: HuT252S4 H3/L2 (antibody, V domains shown)
VH: B1 VH
VL: B1 VL with N31Q, M60R
An EC50 (read off the curve) [1] of 1 µg/mL was found for B2 in this work.

B3: Chimeric T252S4 H/L (antibody, human IgG1, V domains shown)
VH: EVQLQQSGPELVKPGASMKISCKASGYSFTGYNMNWVKQTHGKNLEWIGLINPYNGGTRYNQKFKGKATLTVDKSSSTAYMELLSLTSEDSAVYFCARMGLGNAMDYWGQGTSVTVSS
VL: DIVMTQSPSSLTVTAGEKVTMSCKSSQNLLNSGNQKNYLTWYQQKPGQPPKLLIYWASTMESGVPDRFTGSGSGTDFTLTISSVQAEDLAVYYCQNDYIYPLPFGAGTKLELK
An EC50 [2] of 1 µg/mL was found for B3 in this work.
